Article PMC2660430

Biological target: PfOAT (recombinant ornithine aminotransferase) (P. falciparum strain 3D7) (UniProt Q6LFH8)
Sequence (Q6LFH8 whole entry): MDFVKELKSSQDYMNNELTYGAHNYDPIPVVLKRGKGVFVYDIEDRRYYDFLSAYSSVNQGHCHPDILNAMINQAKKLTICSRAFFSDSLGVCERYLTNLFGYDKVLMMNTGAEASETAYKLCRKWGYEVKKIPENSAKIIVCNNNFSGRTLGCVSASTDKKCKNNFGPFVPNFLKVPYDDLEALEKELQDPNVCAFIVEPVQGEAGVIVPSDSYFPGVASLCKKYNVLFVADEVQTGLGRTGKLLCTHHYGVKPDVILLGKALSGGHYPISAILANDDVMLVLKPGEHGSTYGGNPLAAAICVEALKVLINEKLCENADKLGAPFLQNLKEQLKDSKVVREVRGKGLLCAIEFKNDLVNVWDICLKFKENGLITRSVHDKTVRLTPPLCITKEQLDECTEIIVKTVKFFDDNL

PfTrx1 (wild type thioredoxin) (from UniProt Q7KQL8 1-104) (natural protein)
OAT activity (ornithine aminotransferase assay) with equimolar wild type thioredoxin: 75%
